Reference: PMC2141715
Read-outs that look alike come from different tables or passages of the source.

Experiments:
Assay in all cases: co-IP
[1] = biological target: calnexin (canine pancreas microsomes) (dog (endogenous in canine pancreas microsomes)) (UniProt P24643)
[2] = biological target: calreticulin (canine pancreas microsomes) (dog (endogenous in canine pancreas microsomes)) (UniProt P28490)
[3] = biological target: calnexin (canine pancreas microsomes) (dog (endogenous in canine pancreas microsomes)) (UniProt P24643); remark: listed apart in the source
[4] = biological target: calreticulin (canine pancreas microsomes) (dog (endogenous in canine pancreas microsomes)) (UniProt P28490); remark: listed apart in the source

Sequence of UniProt P24643 (P24643 21-593): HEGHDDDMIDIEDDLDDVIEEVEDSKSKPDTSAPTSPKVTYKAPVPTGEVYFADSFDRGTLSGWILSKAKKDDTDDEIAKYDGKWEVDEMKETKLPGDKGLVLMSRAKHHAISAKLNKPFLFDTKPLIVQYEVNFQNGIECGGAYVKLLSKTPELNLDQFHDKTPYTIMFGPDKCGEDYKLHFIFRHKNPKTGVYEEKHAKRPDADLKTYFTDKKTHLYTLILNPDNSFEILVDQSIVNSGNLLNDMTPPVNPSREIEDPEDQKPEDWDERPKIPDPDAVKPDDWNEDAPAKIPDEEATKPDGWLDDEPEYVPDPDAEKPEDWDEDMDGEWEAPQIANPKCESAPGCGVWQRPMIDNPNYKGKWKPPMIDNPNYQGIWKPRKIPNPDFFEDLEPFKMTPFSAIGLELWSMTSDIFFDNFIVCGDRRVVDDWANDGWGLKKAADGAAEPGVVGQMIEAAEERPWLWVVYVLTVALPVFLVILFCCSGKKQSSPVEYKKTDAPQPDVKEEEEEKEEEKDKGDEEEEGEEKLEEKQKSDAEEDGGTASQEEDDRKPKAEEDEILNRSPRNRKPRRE

Row | Substance | binding ratio of the IT2 form (IT1 = 1.0, normalised to anti-HA precipitations) [1] | binding ratio of the NT form (IT1 = 1.0, normalised to anti-HA precipitations) [1] | percent of HA in calnexin–HA complexes without calreticulin [1] [%] | percent of HA in ternary complexes with m2 and m3 [1] [%] | binding ratio of the IT2 form (IT1 = 1.0, normalised to anti-HA precipitations) [2] | binding ratio of the NT form (IT1 = 1.0, normalised to anti-HA precipitations) [2] | percent of HA coprecipitated [2] [%] | percent of HA in calreticulin–HA complexes without calnexin [2] [%] | percent of HA in ternary complexes with m2 and m3 [2] [%] | percent of HA coprecipitated [3] [%] | percent of HA coprecipitated [4] [%]
1 | influenza virus hemagglutinin (HA), wild type, X31 (natural protein) | 0.65 | 0.63 | 8 | 40 | 0.57 | 0.16 | 45 | 10 | 40 | 82 | 50
2 | anchor-free, truncated, soluble form of HA (domain or fragment) | – | – | – | – | – | – | – | – | – | 54 | 50
